# Laboratory results: article PMC12579213 (2025)
# B1: 6xHis-tagged RBD_(ROCK1) (domain or fragment)
# chain: KDHTVSRLEEANSMLTKDIEILRRENEELTEKMKKAEEEYKLEKEEEISNLKAAFEKNINTERTLKTQAVNKLAEIMNRKDF
# Key:
# Test in all cases: BLI
# GST-tagged RhoA (Q63L) [1] = molecular target: T1, GST-tagged RhoA (Q63L) (UniProt P61586 1-193, Q63L)
# GST-tagged Rac1 (Q61L) [2] = molecular target: T2, GST-tagged Rac1 (Q61L) (UniProt P63000 1-192, Q61L)
# [3] = molecular target: T3, GST-tagged Rac1F37W (Q61L) (UniProt P63000 1-192, F37W | Q61L)
# GST-tagged RhoA (Q63L) [4] = molecular target: T1, GST-tagged RhoA (Q63L); remark: listed apart in the source
# GST-tagged Rac1 (Q61L) [5] = molecular target: T2, GST-tagged Rac1 (Q61L); remark: listed apart in the source
# [6] = molecular target: T3, GST-tagged Rac1F37W (Q61L); remark: listed apart in the source
binder,measurement,setting,value
B1,koff,GST-tagged RhoA (Q63L) [1],0.000699 s⁻¹
same,koff,GST-tagged Rac1 (Q61L) [2],0.00156 s⁻¹
same,koff,[3],0.00474 s⁻¹
same,Kd,GST-tagged RhoA (Q63L) [4],31 nM
same,Kd,GST-tagged Rac1 (Q61L) [5],56 nM
same,Kd,[6],179 nM
